Source: publication PMC11347159, “MUT-7 exoribonuclease activity and localization are mediated by an ancient domain” (Nucleic Acids Research, 2023)

What was measured:
[1] = biological target: T1, MUT-7^FL/MUT-8^FL complex (Caenorhabditis elegans, UniProt P34607 1-910; Q19672 1-578); assay: pull-down; purified proteins (5 μM) pre-incubated 30 min at 4°C in 20 mM HEPES/NaOH pH 7.5, 150 mM NaCl, 10% glycerol, 0.05% IGEPAL, 2 mM DTT; GST-tagged MUT-16 constructs held on glutathione resin; SDS-PAGE, Coomassie; details: both partners purified
T1 construct: C. elegans exonuclease MUT-7, residues 1-910 (full length); C. elegans MUT-8 (RDE-2), residues 1-578 (full length); Complex formed beforehand by co-expression; also called full-length MUT-7/MUT-8; MUT-7/MUT-8; source: E. coli BL21(DE3) derivative, co-expressed, purified through several chromatographic steps
T1 sequence (looked up) 1: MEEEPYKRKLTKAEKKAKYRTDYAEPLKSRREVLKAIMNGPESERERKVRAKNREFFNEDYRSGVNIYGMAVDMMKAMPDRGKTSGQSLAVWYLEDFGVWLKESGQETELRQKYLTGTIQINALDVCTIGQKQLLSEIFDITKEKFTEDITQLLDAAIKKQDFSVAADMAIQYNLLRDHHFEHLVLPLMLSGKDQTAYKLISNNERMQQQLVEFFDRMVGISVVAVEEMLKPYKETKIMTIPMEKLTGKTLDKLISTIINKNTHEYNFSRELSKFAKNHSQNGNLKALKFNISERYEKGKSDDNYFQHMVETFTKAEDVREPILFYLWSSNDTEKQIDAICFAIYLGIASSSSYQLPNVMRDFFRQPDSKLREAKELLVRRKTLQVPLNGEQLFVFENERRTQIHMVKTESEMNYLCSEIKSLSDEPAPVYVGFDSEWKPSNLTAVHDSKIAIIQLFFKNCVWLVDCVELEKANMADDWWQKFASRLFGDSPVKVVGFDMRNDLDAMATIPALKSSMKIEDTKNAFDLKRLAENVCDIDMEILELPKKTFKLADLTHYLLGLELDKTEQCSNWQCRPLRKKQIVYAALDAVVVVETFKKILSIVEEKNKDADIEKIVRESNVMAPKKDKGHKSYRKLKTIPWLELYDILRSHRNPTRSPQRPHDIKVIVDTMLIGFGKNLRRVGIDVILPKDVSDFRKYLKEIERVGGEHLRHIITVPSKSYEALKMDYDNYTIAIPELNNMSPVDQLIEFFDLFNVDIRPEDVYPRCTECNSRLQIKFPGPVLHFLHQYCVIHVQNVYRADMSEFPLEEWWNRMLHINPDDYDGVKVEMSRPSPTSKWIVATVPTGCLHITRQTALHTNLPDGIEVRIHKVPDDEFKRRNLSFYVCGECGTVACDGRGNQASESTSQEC
T1 sequence (looked up) 2: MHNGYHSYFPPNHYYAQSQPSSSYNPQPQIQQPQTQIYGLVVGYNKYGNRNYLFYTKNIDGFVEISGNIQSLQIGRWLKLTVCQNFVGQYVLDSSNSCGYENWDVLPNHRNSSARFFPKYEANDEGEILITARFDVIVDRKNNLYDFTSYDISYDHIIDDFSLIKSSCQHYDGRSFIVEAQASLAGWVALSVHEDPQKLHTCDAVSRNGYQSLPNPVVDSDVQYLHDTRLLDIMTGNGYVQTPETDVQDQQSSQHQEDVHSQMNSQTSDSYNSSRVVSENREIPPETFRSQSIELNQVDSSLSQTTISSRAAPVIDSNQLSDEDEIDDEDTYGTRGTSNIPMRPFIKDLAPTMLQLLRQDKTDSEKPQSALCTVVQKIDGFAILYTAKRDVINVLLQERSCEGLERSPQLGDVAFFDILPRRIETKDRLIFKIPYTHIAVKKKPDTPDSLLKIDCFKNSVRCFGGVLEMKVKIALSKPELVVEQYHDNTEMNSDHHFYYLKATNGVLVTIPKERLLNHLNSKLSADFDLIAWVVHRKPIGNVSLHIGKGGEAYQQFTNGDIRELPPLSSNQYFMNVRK

[2] = biological target: T2, MUT-8^NTD (1–235), purified (Caenorhabditis elegans, UniProt Q19672 1-235); assay: ITC; isothermal titration calorimetry of MUT-8^NTD and MUT-16^584–724; details: both partners purified
T2 construct: C. elegans MUT-8 N-terminal domain, residues 1-235
T2 sequence (looked up): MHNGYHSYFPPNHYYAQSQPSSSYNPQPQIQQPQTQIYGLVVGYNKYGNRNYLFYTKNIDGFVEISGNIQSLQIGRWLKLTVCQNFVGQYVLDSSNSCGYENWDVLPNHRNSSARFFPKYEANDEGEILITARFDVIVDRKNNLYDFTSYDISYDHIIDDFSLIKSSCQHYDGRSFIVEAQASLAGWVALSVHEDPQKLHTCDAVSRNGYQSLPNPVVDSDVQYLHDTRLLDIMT

EXD3 NTD-EXO(D399A) = biological target: T3, EXD3 NTD-EXO(D399A) (Homo sapiens, UniProt Q8N9H8 1-582, D399A); assay: fluorescence polarization; 250 mM NaCl; Hill h 1.1; FP, 50 nM RNA, 30 min, room temperature; C. elegans proteins: 20 mM HEPES/NaOH pH 7.5, 150 mM NaCl, 10% glycerol, 5 mM EDTA; human proteins: 20 mM HEPES/NaOH pH 7.5, 250 mM NaCl; details: protein: recombinant; label: 5'-FAM; single strand
T3 sequence: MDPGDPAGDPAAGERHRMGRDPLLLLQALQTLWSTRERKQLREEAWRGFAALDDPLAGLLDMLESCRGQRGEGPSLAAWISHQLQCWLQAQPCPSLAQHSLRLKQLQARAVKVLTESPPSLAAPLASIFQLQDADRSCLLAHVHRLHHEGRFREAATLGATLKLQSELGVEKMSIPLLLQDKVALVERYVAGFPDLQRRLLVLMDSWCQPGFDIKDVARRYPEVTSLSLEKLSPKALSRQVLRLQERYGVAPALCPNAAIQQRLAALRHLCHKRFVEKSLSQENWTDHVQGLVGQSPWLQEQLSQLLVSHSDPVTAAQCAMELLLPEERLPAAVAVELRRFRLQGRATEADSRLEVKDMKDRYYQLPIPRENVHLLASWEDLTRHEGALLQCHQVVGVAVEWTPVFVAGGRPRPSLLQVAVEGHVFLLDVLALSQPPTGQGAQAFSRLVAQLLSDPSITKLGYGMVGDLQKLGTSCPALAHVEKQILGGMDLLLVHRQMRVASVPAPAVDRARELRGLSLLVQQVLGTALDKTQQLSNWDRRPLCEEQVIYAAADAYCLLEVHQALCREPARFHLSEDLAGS

MUT-7 FL = biological target: T4, MUT-7 FL (Caenorhabditis elegans, UniProt P34607 1-910); assay: fluorescence polarization; 5 mM EDTA, 150 mM NaCl; Hill h 1.195; FP, 50 nM RNA, 30 min, room temperature; C. elegans proteins: 20 mM HEPES/NaOH pH 7.5, 150 mM NaCl, 10% glycerol, 5 mM EDTA; human proteins: 20 mM HEPES/NaOH pH 7.5, 250 mM NaCl; details: protein: recombinant; tags: His10-MBP-3C (N), 3C cleavage in purification; label: 5'-FAM; single strand
T4 sequence: T1 sequence (looked up) 1

MUT-7 NTD-EXO = biological target: T5, MUT-7 NTD-EXO (Caenorhabditis elegans, UniProt P34607 1-625); assay: fluorescence polarization; 5 mM EDTA, 150 mM NaCl; Hill h 1.491; FP, 50 nM RNA, 30 min, room temperature; C. elegans proteins: 20 mM HEPES/NaOH pH 7.5, 150 mM NaCl, 10% glycerol, 5 mM EDTA; human proteins: 20 mM HEPES/NaOH pH 7.5, 250 mM NaCl; details: protein: recombinant; label: 5'-FAM; single strand
T5 sequence: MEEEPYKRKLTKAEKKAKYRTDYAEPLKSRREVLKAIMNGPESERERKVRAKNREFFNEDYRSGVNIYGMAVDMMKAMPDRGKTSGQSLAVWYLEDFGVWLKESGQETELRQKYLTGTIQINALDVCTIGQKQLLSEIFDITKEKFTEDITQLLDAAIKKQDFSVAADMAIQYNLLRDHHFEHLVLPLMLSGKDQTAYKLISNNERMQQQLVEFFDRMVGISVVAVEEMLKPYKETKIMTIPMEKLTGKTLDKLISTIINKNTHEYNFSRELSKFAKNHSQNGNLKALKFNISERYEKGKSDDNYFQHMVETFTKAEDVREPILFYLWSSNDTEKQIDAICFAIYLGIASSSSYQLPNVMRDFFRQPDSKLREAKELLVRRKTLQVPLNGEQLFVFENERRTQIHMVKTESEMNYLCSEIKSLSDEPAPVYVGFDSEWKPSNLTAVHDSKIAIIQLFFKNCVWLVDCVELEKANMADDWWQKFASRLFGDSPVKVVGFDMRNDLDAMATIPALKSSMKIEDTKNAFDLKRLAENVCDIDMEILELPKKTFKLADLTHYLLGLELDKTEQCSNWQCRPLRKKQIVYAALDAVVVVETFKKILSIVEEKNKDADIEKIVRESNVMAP

EXD3 FL(D399A) = biological target: T6, EXD3 FL(D399A) (Homo sapiens, UniProt Q8N9H8 1-876, D399A); assay: fluorescence polarization; 250 mM NaCl; Hill h 1.029; FP, 50 nM RNA, 30 min, room temperature; C. elegans proteins: 20 mM HEPES/NaOH pH 7.5, 150 mM NaCl, 10% glycerol, 5 mM EDTA; human proteins: 20 mM HEPES/NaOH pH 7.5, 250 mM NaCl; details: protein: recombinant; label: 5'-FAM; single strand
T6 sequence: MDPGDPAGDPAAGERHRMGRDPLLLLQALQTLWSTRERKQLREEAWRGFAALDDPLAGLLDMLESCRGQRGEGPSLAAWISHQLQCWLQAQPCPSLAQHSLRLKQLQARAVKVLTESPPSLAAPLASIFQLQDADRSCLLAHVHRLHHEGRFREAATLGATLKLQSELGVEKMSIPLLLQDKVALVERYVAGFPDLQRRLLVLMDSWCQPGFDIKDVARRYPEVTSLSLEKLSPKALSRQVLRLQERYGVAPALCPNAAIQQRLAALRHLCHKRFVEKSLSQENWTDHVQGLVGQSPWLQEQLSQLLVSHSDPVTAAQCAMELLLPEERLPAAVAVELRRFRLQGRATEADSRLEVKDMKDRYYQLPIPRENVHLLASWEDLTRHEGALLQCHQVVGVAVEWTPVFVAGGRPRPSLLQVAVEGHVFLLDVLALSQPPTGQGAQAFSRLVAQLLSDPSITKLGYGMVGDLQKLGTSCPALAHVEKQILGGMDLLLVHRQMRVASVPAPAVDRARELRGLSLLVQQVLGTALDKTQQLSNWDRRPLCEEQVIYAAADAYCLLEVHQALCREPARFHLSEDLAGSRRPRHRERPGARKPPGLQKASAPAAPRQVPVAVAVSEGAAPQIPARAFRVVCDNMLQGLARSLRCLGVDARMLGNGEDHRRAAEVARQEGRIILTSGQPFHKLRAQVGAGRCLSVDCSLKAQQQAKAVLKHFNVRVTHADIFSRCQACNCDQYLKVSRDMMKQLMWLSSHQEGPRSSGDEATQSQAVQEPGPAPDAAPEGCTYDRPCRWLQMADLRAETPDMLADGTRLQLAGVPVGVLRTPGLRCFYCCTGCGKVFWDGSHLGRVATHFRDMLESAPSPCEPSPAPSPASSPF

B1: GST-tagged MUT-16^1–724 (domain or fragment, Caenorhabditis elegans, UniProt O62011 1-724, looked up)
chain: MSESDDDYPELDISDQYIDPLGIVVGPPPASYTETDREETPMQNRTEDDTNSYGNSSGEHDYDSYLDSGDDDFDVDAYYANDNMDEPPPETIPDNLIQNVIGRNDNADYDFSDASNPEIMKRDLQLFLSSSLLSNPLKFRSGYSSDELDDCLKSCMGYSLQVTAVLLLPPEIISQLPNDSKTEHAHALVRGGWLQSKEGAFFPVISDSERETVVSLMNGSEEQHKRQERKKKEADTFESEEKEIRTLLTFNMIAELLMAVRNEYSIRSVKYQILSTAYTNMVTGAAHANIFRKYKDILQLDPEKLWNNDWFKEYTNRGTLKKFLTTARFSEIVVSQANGKTVELYFRADDEGNRPVVLFTDEHIADVRNKWKTGNQRNQNYGSQGNYRAGGQRSDDRRGPQQRRNVIVPDPNYQPSTFAGGISNNADDDGSLQPTTSSHFNRNTDRSTSRPPRAPTSPVNRVMETDPLMGQGTSSGAPQRSAIPNPFGGAPALSRSTITNGNRGPSYGDRGERVQDVGDTTSDSEITSEGSYSDEDPEQKEIKRQRRKDKLKKKQERELRSREKHTKSKQQPPSKIETRFNTYKKKSESSATDTSNTPPVDTVNVALPTPVVESSSTTAAPSIPVSTRPEVVVPPENPAPLREVGNFYSKSNHDEDRRNVQLPFTPADTHKPIKVAPKEPVRNPLLKERPSANGFINRRLPSHPAPPPVNQSQPANQPMQTAVY
notes: numbers count on the longer isoform B0379.3a.1 (O62011); also called the longest MUT-16 construct; source: E. coli BL21(DE3) derivative, purified
[1]
  binding result: binds

B2: GST-tagged MUT-16^584–724 (domain or fragment, Caenorhabditis elegans, UniProt O62011 584-724, looked up)
chain: KKKSESSATDTSNTPPVDTVNVALPTPVVESSSTTAAPSIPVSTRPEVVVPPENPAPLREVGNFYSKSNHDEDRRNVQLPFTPADTHKPIKVAPKEPVRNPLLKERPSANGFINRRLPSHPAPPPVNQSQPANQPMQTAVY
notes: numbers count on the longer isoform B0379.3a.1 (O62011); source: E. coli BL21(DE3) derivative, purified
[1]
  binding result: binds

B3: MUT-16^584–724 (domain or fragment, Caenorhabditis elegans, UniProt O62011 584-724, looked up)
chain: B2 chain
notes: numbers count on the longer isoform B0379.3a.1 (O62011); an untagged form was purified for CD; source: E. coli BL21(DE3) derivative; co-expressed with MBP-tagged MUT-8 constructs, in lysate; co-expressed with MUT-8^NTD and purified as complex; purified
[2]
  Kd: ~13 µM

B4: 16-mer ssRNA (ssRNA)
RNA: GUUGAUUGAAGAGUUC
EXD3 NTD-EXO(D399A)
  Kd: 11.2 µM
MUT-7 FL
  Kd: 2.33 µM
MUT-7 NTD-EXO
  Kd: 18.7 µM
EXD3 FL(D399A)
  Kd: 1.86 µM
